Test results as given in paper PMC9112662, “Scaffold stability and P14′ residue steric hindrance in the differential inhibition of FXIIa by Aedes aegypti trypsin inhibitor versus Infestin-4” (Bioscience Reports, 2022).

Biological target: human Factor XIIa (human) (UniProt P00748)
Sequence (P00748 20-615): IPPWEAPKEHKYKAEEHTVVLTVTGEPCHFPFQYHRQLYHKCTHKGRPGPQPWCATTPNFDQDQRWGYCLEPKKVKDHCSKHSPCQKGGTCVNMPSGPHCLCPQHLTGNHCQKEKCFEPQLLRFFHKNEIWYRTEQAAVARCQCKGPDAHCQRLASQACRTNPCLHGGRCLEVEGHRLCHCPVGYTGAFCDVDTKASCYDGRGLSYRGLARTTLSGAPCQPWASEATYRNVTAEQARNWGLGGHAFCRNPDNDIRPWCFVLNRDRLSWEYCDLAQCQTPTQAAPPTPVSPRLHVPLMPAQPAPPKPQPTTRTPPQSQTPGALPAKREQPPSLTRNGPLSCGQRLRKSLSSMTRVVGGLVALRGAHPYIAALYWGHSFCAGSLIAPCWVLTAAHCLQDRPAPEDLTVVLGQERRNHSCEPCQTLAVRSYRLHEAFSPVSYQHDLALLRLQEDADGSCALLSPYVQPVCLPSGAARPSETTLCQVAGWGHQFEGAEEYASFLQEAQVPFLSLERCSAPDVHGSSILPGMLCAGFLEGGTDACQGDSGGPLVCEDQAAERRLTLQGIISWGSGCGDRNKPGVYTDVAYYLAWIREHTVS

Substance	IC50 of inhibition of FXIIa activity, chromogenic assay (substrate S-2302) [µM]
Inf4_F10P+N12I (domain or fragment)	0.0228
Inf4_F10P+V14M (domain or fragment)	0.0421
AaTI_Inf4 C1C3+C5C6+N27G	0.0114
Inf4_G25N (domain or fragment)	0.0541
Inf4_N12I+V14M (domain or fragment)	0.0079
Inf4_F10P+N12I+V14M (domain or fragment)	0.0705
